Literature values as cited in publication PMC11449392.

Target: Abl PRM (Homo sapiens) (UniProt P00519)
Chain of UniProt P00519 (P00519 whole entry, looked up): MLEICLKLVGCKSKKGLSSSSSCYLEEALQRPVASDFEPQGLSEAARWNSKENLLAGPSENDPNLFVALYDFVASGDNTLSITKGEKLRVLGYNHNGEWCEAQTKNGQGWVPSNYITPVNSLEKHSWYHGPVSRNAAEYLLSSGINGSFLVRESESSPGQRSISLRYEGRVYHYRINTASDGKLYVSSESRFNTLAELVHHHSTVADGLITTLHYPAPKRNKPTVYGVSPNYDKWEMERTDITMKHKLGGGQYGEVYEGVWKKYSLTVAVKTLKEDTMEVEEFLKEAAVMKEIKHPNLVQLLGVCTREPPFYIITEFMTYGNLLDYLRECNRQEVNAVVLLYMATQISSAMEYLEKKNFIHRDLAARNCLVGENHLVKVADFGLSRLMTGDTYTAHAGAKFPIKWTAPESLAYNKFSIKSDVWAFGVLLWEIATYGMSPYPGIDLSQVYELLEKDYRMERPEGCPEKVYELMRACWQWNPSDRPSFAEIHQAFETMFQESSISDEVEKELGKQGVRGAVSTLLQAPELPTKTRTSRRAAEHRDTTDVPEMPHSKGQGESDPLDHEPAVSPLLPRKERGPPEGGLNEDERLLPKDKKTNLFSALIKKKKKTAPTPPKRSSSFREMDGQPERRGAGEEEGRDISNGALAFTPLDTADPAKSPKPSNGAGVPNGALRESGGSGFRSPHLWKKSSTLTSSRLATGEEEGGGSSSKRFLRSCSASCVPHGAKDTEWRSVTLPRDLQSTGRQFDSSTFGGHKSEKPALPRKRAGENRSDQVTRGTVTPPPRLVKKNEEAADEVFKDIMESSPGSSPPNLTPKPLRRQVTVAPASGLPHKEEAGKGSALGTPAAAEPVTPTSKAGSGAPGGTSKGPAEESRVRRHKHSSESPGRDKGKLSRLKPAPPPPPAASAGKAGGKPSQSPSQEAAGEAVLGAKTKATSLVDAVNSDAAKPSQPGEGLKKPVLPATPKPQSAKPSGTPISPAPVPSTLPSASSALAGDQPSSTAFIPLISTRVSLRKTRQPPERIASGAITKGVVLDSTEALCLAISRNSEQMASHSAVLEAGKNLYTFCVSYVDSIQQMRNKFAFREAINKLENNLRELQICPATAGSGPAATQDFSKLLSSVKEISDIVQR

Question: With “Nck second SH3 domain (from UniProt P16333)” as the substance, how does the Kd read?
Answer: The Kd was 350 µM.
